Assay results reported in patent US20070203054A1 (YISSUM RESEARCH DEVELOPMENT COMPANY OF THE HEBREW …, published 2007).

Columns and labels:
[1] = molecular target: HA of influenza virus X-127 (H1N1) on infected cells (influenza A virus X-127 (H1N1))
[2] = molecular target: rosettes of HA from X31 (A/Aichi/2/68xpr/8/34) H3N2 influenza virus (influenza A virus X31 …, UniProt P03437 17-520); experiment: ELISA, plates coated with HA rosettes

NKp46-Ig fusion protein, sequence (O76036 22-254 Q82K): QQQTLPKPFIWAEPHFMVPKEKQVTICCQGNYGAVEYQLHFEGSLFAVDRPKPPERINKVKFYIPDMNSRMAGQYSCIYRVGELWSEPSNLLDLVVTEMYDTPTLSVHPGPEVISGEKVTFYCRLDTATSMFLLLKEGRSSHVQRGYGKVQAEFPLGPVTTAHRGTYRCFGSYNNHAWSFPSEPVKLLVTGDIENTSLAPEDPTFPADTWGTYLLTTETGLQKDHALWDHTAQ
NKp44-Ig fusion protein, sequence (O95944 22-190 M75V limits assumed): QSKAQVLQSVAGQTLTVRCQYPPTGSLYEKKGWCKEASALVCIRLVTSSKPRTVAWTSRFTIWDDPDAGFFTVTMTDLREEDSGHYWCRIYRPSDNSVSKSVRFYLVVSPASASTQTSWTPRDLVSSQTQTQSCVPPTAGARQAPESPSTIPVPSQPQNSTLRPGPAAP
NKp46D1-Ig fusion protein (membrane distal domain of NKp46 fused to Fc of human IgG1), sequence (O76036 22-120 Q82K): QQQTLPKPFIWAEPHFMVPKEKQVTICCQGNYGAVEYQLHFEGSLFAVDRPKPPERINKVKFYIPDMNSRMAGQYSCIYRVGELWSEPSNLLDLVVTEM

Molecule	MFI [1]	binding result [2]
NKp44-Ig fusion protein (from UniProt O95944 22-190) (Fc fusion)	220	–
NKp46-Ig fusion protein (from UniProt O76036 22-254) (Fc fusion)	107	–
NKp46D1-Ig fusion protein (membrane distal domain of NKp46 fused to Fc of human IgG1) (from UniProt O76036 22-120) (Fc fusion)	5	–
NKp46D2-Ig fusion protein produced in COS cells (membrane proximal domain of NKp46 fused to Fc of human IgG1) (from UniProt O76036 121-254) (Fc fusion)	160	–
NKp30-Ig fusion protein (from UniProt O14931 19-135) (Fc fusion)	6	–
CD99-Ig fusion protein (Fc fusion) DGGFDLSDALPDNENKKPTAIPKKPSAGDDFDLGDAVVDGENDDPRPPNPPKPMPNPNPNHPSSSGSFSDADLADGVSGGEGKGGSDGGGSHRKEGEEAD	1	–
NKp30-Ig fusion protein (Fc fusion, human, UniProt O14931 19-135, looked up, not shown: a dimerising Fc or GST) LWVSQPPEIRTLEGSSAFLPCSFNASQGRLAIGSVTWFRDEVVPGKEVRNGTPEFRGRLAPLASSRFLHDHQAELHIRDVRGHDASIYVCRVEVLGLGVGTGNGTRLVVEKEHPQLG	–	no binding
